In patent publication US5821046A, “RNA oligonucleotides that bind HIV tat protein” (RiboTargets Holdings PLC, priority 1990, dated 1998):

Experiments:
HIV-1 Tat [1] = target: T1, HIV-1 Tat (Human immunodeficiency virus 1, UniProt P04608 P04608:1-86); assay: competition; D1/2; 18+15 duplex probe; 59-mer 18 nM; details: duplex with UUU bulge, no apical loop
HIV-1 Tat [2] = target: T1, HIV-1 Tat; assay: competition; D1/2 vs 10 nM 59-mer probe (59-mer 40 nM); 60 nM vs 29-mer probe; details: hairpin with U-rich bulge and loop
HIV-1 Tat [3] = target: T1, HIV-1 Tat; assay: filter; D1/2 680 nM; no complex in EMSA; details: stem-loop, upper stem disrupted
Rev = details: references 33, 34; read-out: Kd of Rev-RRE complex; cited from earlier work
HIV-1 Tat [4] = target: T1, HIV-1 Tat; assay: filter; no complex in EMSA; details: stem-loop
HIV-1 Tat [5] = target: T1, HIV-1 Tat; assay: competition; D1/2; unmodified 18+15 duplex 65 nM; 59-mer 18 nM; details: duplex with bulge
HIV-1 Tat [6] = target: T1, HIV-1 Tat; assay: filter; D1/2 160 nM; about 2.5-fold lower affinity; complex in EMSA; details: stem-loop with 2-nt bulge
HIV-1 Tat [7] = target: T1, HIV-1 Tat; assay: filter; D1/2 420 nM in table (290 nM in text); no complex in EMSA; details: stem-loop without bulge

B1: 18-mer + 15-mer TAR duplex (dsRNA)
RNA 1: AGCCAGAUUUGAGCAGCU
RNA 2: AGCUGCUCUCUGGCU
IC50 (HIV-1 Tat [1]): 65 nM

GCCAGAUUUGAGCCUGGGAGCUCUCUGGC (ssRNA) [29-mer top part of TAR]
IC50 (HIV-1 Tat [2]): 100 nM

B2: TAR G28 to C28 (ssRNA)
RNA: GGGUCUCUCUGGUUAGACCAGAUUUGACCCUGGGAGCUCUCUGGCUAACUAGGGAACCC
Kd (HIV-1 Tat [3]): > 100 nM

B3: RRE: rev-responsive element, 243-nucleotide long sequence within the env gene (nucleic acid)
chain: CAGUGGGAAUAGGAGCUUUGUUCCUUGGGUUCUUGGGAGCAGCAGGAAGCACUAUGGGCGCAGCGUCAAUGACGCUGACGGUACAGGCCAGACAAUUAUUGUCUGGUAUAGUGCAGCAGCAGAACAAUUUGCUGAGGGCUAUUGAGGCGCAACAGCAUCUGUUGCAACUCAAGUCUGGGGCAUCAAGCAGCUCCAGGCAAGAAUCCUGGCUGUGGAAAGAUACCUAAAGGAUCAACAGCUCCU
Kd (Rev): 3 nM

B4: Antisense TAR (ssRNA)
RNA: GGGUUCCCUAGUUAGCCAGAGAGCUCCCAGGCUCAAAUCUGGUCUAACCAGAGAGACCC
Kd (HIV-1 Tat [4]): > 140 nM

B5: 18+15 duplex 4-thioT-25 (dsRNA)
RNA 1: AGCCAGAUUTGAGCAGCU
RNA 2: AGCUGCUCUCUGGCU
modifications: 4-thio-2'-deoxythymidine at U25 (nt 10) [10 (strand 1, 4-thio-2'-deoxythymidine)]
IC50 (HIV-1 Tat [5]): 12 nM

B6: HIV-2 TAR RNA first stem-loop (ssRNA)
RNA: CUGCGGAGAGGCUGGCAGAUUGAGCCCUGGGAGGUUCUCUCCAGCACUAGCAG
Kd (HIV-1 Tat [6]): 30 nM

B7: TAR delta U (bulge) (ssRNA)
RNA: GGGUCUCUCUGGUUAGACCAGAGAGCCUGGGAGCUCUCUGGCUAACUAGGGAACCC
Kd (HIV-1 Tat [7]): > 70 nM
